# Laboratory results taken from patent WO2006089678A2 (dated 2006).
# B1: n-CoDeR ® anti-Tat antibody (antibody, V domains shown)
# VH: EVQLLESGGGLVQPGGSLRLSCAASGFTFDDYGMAWVRQAPGKGLEWVSGVSWNGSRTHYADSVKGRFTISRDNSKNTLYLQMNSLRAEDTAVYYCARGVAGHDYWGQGTLVTVSS
# VL: QSVLTQPPSASGTPGQRVTISCSGSRSNIGSHYVFWYQQLPGTAPKLLIYDNNKRPSGVPDRFSGSKSGTSASLAISGLRSEDEADYYCAAWDGSLSGHVVFGGGTKLTVLG
# notes: Human IgG1 lambda, expressed in CHO cells; also called fully human recombinant IgG1 antibody from the n-CoDeR phage display library
# Tests used:
# [1] = biological target: T1, target epitope BSA conjugated peptide (HIV-1, conjugated to BSA); assay: ELISA, BSA-conjugated peptide coated on plates, HRP rabbit anti-human IgG, luminescence
# T1 construct: also called peptide conjugated to BSA
# [2] = biological target: T2, Tat, excreted regulatory protein encoded by HIV-1 (HIV-1 IIIB, in infected Jurkat cells) (HIV-1 IIIB, UniProt P04610 1-86); assay: cell-based or functional assay
# T2 sequence: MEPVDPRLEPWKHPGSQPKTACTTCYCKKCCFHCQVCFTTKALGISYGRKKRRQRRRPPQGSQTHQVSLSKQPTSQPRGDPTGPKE
binder,measurement,setting,value
B1,EC50,[1],0.7 nM
same,"IC50 of inhibition of HIV-1 replication, 1 % initially HIV-1 IIIB infected Jurkat cells, p24 ELISA",[2],0.05 µg/mL
same,"IC50 of inhibition of HIV-1 replication, 3 % initially HIV-1 IIIB infected Jurkat cells, p24 ELISA",[2],0.07 µg/mL
